Experimental findings from patent US20220177567A1 (WASHINGTON UNIVERSITY, published 2022) are described below.

Assay [1] deals with T1, human FLAG-tagged IL12Rβ1 expressed on EL-4 cells (human, UniProt P42701 24-662).
T1 construct: whole, on cells; EL-4 cell line transduced with a construct encoding human FLAG-tagged IL12Rβ1; also called EL-4-human IL-12Rβ1 cells; human IL12Rβ1; not shown: FLAG tag
Description: flow cytometry, hybridoma supernatant followed by anti-mouse IgG PE. An excerpt:
EL-4-human IL-12Rβ1 cell line: The EL-4 cell line was transduced with a construct encoding the human FLAG-tagged IL12Rβ1 Flow cytometry: EL-4-human IL-12Rβ1 cells were stained with supernatants from different hybridoma clones followed by anti-mouse IgG Pe. Staining was compared with that obtained with anti-FLAG Tag followed by anti-mouse IgG Pe. Hybridoma clones staining the same percentage of cells stained by anti-FLAG Tag were selected and further tested in primary cells (FIG. 2).
For orientation: A flow cytometer gives signals particle by particle.

Assay [2] has as its target T2, human IL12Rβ1 (native, on human primary cells) (human, UniProt P42701 24-662).
T2 construct: whole, on cells; Endogenous receptor on human tonsil ILC3 and peripheral blood lymphocytes; also called CD212; interleukin 12 receptor subunit beta 1
Description: summary statement; no affinity method or value given.

B1: 1G6 anti-IL12Rβ1 monoclonal antibody (antibody, V domains shown)
VH: RVQLQQSGAELAKPGASVRLSCMASGYTFTSYWMHWVKQRPGQGLEWIGYIDPNNGYTKYSQKFKDKATLTADKSSSTANMRLSSLTYEDSAVYYCVRGGEIYYFDYWGQGTTLTVSS
VL: DIQMTQSPSSLSASLGGKVTITCKASQDIYKYIAWYQHKPGKGPRLLIHYTSTLQPGIPSRFSGSGSGRDYSFSISDLEPEDIATYYCLQYDNILWTFGGGTKLEIKR
notes: Hybridoma monoclonal antibody, detected with anti-mouse IgG PE; Tested as hybridoma supernatant and also in biotinylated form; also called IG6; mab (1 G6)
Regarding B1, the binding result in assay [1] and in assay [2] was “binds” each time.
